Measured values as given in PMC12322040 (Nature Communications, 2025).

T1: GST-GCK WT (human, UniProt P35557 1-465)
T1 sequence (looked up): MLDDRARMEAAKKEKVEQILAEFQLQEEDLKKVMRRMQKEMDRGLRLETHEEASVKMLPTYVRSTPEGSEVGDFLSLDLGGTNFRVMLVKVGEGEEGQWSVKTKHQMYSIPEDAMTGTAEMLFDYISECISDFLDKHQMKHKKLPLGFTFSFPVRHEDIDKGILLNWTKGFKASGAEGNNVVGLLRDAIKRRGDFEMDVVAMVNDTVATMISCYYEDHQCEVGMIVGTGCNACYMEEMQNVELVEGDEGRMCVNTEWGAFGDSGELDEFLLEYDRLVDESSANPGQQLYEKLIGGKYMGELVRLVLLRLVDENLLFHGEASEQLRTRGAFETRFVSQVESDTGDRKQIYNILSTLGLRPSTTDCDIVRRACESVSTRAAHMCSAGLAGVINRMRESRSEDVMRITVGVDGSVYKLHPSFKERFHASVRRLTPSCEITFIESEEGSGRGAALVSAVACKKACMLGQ

T2: His-GCK WT (human, UniProt P35557 1-465)
T2 sequence (looked up): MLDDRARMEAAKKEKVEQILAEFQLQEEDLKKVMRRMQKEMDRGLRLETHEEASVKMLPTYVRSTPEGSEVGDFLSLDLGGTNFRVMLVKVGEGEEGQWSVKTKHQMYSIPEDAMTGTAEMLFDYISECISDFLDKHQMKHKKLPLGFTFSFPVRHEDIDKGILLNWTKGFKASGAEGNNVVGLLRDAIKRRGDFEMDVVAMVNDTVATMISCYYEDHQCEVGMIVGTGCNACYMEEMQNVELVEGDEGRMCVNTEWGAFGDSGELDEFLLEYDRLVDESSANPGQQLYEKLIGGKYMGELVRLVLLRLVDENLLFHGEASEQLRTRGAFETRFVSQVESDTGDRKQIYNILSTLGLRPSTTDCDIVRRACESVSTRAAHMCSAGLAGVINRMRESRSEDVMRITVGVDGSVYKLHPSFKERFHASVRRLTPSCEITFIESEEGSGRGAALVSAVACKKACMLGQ

B1: His-CK2α (enzyme, human, UniProt P68400 1-391, looked up)
chain: MSGPVPSRARVYTDVNTHRPREYWDYESHVVEWGNQDDYQLVRKLGRGKYSEVFEAINITNNEKVVVKILKPVKKKKIKREIKILENLRGGPNIITLADIVKDPVSRTPALVFEHVNNTDFKQLYQTLTDYDIRFYMYEILKALDYCHSMGIMHRDVKPHNVMIDHEHRKLRLIDWGLAEFYHPGQEYNVRVASRYFKGPELLVDYQMYDYSLDMWSLGCMLASMIFRKEPFFHGHDNYDQLVRIAKVLGTEDLYDYIDKYNIELDPRFNDILGRHSRKRWERFVHSENQHLVSPEALDFLDKLLRYDHQSRLTAREAMEHPYFYTVVKDQARMGSSSMPGGSTPVSSANMMSGISSVPTPSPLGPLAGSPVIAAANPLGMPVPAAAGAQQ
B2: GST-CK2α WT phosphorylated by active His-ERK2 (enzyme, human, UniProt P68400 1-391, looked up)
chain: MSGPVPSRARVYTDVNTHRPREYWDYESHVVEWGNQDDYQLVRKLGRGKYSEVFEAINITNNEKVVVKILKPVKKKKIKREIKILENLRGGPNIITLADIVKDPVSRTPALVFEHVNNTDFKQLYQTLTDYDIRFYMYEILKALDYCHSMGIMHRDVKPHNVMIDHEHRKLRLIDWGLAEFYHPGQEYNVRVASRYFKGPELLVDYQMYDYSLDMWSLGCMLASMIFRKEPFFHGHDNYDQLVRIAKVLGTEDLYDYIDKYNIELDPRFNDILGRHSRKRWERFVHSENQHLVSPEALDFLDKLLRYDHQSRLTAREAMEHPYFYTVVKDQARMGSSSMPGGSTPVSSANMMSGISSVPTPSPLGPLAGSPVIAAANPLGMPVPAAAGAQQ
modifications: phosphothreonine at 360, phosphoserine at 362 (ERK-mediated)

Experiments:
GST-GCK WT = biological target: T1, GST-GCK WT; test: pull-down
His-GCK WT = biological target: T2, His-GCK WT; test: pull-down

| Binder | binding result (GST-GCK WT) | binding result (His-GCK WT) |
| --- | --- | --- |
| B1 | binds | – |
| B2 | – | binds |
